Target: T1, C-terminally His-tagged human ECRG4(32–148) (human, UniProt Q9H1Z8 32-148)
T1 chain: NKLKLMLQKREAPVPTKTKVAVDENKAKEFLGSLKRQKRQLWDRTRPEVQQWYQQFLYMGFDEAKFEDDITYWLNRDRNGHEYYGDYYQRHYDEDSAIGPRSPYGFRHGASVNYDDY
Assay: SPR

Kd: 14.2 nM
B1: 2 × CTLD–Fc (two human LOX-1 CTLDs in tandem, Fc-fused) (Fc fusion)
chain: not shown

Source: paper PMC5840397 (2018)
